# Values of other authors in paper PMC6289173.
# Target: endophilin (UniProt O35179)
substance,measurement,value
endophilin (from UniProt O35179),Kd,10 µM
